These results are taken from patent US20090018083A1.

For experiment [1], the target named is BCL6-3C BTB domain (human BCL6 residues 5-129 with C8Q/C67R/C84N) (human) (UniProt P41182). Kind of experiment: SPR, biotinylated peptide on streptavidin chip, BCL6-3C BTB domain injected. For orientation: In SPR one partner is held on a chip, and binding of the other changes the refractive index at the surface.
The target of experiment [2] is GAL4-BTB^BCL6 (GAL4 DNA binding domain fused to the wild-type BCL6 BTB domain) (human). Kind of experiment: cell-based or functional assay.

Chain of N-CoR^1351-1383 peptide, biotinylated, immobilised for SPR (Q60974 1351-1383): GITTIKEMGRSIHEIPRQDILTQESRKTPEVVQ

In experiment [1], “N-CoR^1351-1383 peptide, biotinylated, immobilised for SPR” showed a fold stronger affinity relative to SMRT^1414-1441 of 2.5 fold.

Turning to “full-length BCoR (from UniProt Q6W2J9 1-1721)”, the enhancement of repression in reporter assays in experiment [2] lay within 2 to 3 fold.
